According to US20230212549A1 (3B PHARMACEUTICALS, published 2023):
Values joined by “and” are separate entries in the source; they are usually repeats but may differ in a detail not shown here. Equal entries are not always repeated. Values belong to the binder of their own block, whether it stands above or below them. Numbered stars: 1 amine (or outer) side, 2 acyl side, 3 side chain; on linkers, the order of the positions; unused ones are H or OH. Bridge positions count the residues as written; N and C are the ends. Square brackets hold non-standard residues; d marks the D form. Primed or numbered codes have the meaning given here. * marks the point of attachment. tMeBn(DOTA-PP) = 1,3,5-trimethylbenzylidene, two thioethers to Cys, third CH2 bound to one N of piperazine whose other N bears DOTA, O=C(O)CN1CCN(CC(=O)O)CCN(CC(=O)N2CCN(Cc3cc(C[*:1])cc(C[*:2])c3)CC2)CCN(CC(=O)O)CC1; TBMB(SCH2CH2NH-DOTA) = O=C(O)CN1CCN(CC(=O)O)CCN(CC(=O)NCCSCc2cc(C[*:1])cc(C[*:2])c2)CCN(CC(=O)O)CC1; Ttds(6) = 1,13-Diamino-4,7,10-trioxatridecan-succinamic acid, O=C(CCC(=O)[*:2])NCCCOCCOCCOCCCN[*:1]; Ttds = 1,13-diamino-4,7,10-trioxatridecan-succinamic acid, O=C(CCC(=O)[*:2])NCCCOCCOCCOCCCN[*:1]; 3MeBn = 3-Methylbenzylidene (m-xylylene thioether bridge from α,α′-dibromo-m-xylene); Ttds(4) = spacer between chelator and peptide, O=C(CCC(=O)[*:2])NCCCOCCOCCOCCCN[*:1]; N4Ac = 6-Carboxy-1,4,8,11-tetraazaundecane, an N4-chelator, NCCNCC(CNCCN)C(=O)*; DOTA = O=C(O)CN1CCN(CC(=O)O)CCN(CC(=O)*)CCN(CC(=O)O)CC1; DTPA = O=C(O)CN(CCN(CC(=O)O)CC(=O)O)CCN(CC(=O)O)CC(=O)*; nBu‑CAyl = n-butylaminocarbonyl, CCCCNC(=O)*; Pro(4,4-F2) = O=C(O)[C@@H]1CC(F)(F)CN1; mXylylene = c1cc(C[*:1])cc(C[*:2])c1; PPAc = 4-Carboxymethyl piperazine; Nle = CCCC[C@H](N)C(=O)O; Hexanoyl = CCCCCC(=O)*; Sar = CNCC(=O)O

Key:
[1] = target: T1, Human recombinant FAP captured on anti-FAP antibody (SPR) (human, UniProt Q12884 26-760); assay: SPR (Biacore), rhFAP captured by anti-FAP antibody; pKD category A = >8.0
T1 construct: whole entry of human FAP named; also called rhFAP

[2] = target: T2, human fibroblast activating protein (FAP) on WI-38 fibroblasts (human, UniProt Q12884 1-760); assay: competitive FACS on WI-38 cells vs 3 nM Cy5-labeled peptide; pIC50 category A = >8.0
T2 construct: FAP-expressing human WI-38 fibroblasts (ECACC)

[3] = target: T3, human fibroblast activation protein (FAP) on WI-38 fibroblasts (human, UniProt Q12884 1-760); assay: competitive FACS, WI-38 cells, Cy5-labeled peptide as competitor; C = pIC50 6.1 to 7.0
T3 construct: FAP-expressing human WI-38 fibroblasts (ECACC)

[4] = target: T4, Recombinant human FAP (R&D systems, #3715-SE) (human, UniProt Q12884 26-760); assay: cell-based or functional assay
[5] = target: T5, fibroblast activation protein (FAP) on FAP-expressing human WI-38 fibroblasts (human, UniProt Q12884 1-760); assay: competitive FACS, WI-38 cells, vs Cy5 tracer m3; D = pIC50 <=6.0
T5 construct: also called human FAP

[6] = target: Recombinant human FAP (R&D systems, #3715-SE) (human, UniProt Q12884 26-760); assay: cell-based or functional assay; remark: listed apart in the source
[7] = target: T4, Recombinant human FAP (R&D systems, …); assay: SPR (Biacore T200), FAP captured on anti-FAP antibody, single cycle kinetics; B = pKD 7.1 to 8.0
[8] = target: Recombinant human DPP4 (R&D systems, #9168-SE) (human, UniProt P27487 29-766); assay: cell-based or functional assay
[9] = target: T6, recombinant human PREP (R&D systems, #4308-SE) (human, UniProt P48147 1-710); assay: cell-based or functional assay
T6 sequence: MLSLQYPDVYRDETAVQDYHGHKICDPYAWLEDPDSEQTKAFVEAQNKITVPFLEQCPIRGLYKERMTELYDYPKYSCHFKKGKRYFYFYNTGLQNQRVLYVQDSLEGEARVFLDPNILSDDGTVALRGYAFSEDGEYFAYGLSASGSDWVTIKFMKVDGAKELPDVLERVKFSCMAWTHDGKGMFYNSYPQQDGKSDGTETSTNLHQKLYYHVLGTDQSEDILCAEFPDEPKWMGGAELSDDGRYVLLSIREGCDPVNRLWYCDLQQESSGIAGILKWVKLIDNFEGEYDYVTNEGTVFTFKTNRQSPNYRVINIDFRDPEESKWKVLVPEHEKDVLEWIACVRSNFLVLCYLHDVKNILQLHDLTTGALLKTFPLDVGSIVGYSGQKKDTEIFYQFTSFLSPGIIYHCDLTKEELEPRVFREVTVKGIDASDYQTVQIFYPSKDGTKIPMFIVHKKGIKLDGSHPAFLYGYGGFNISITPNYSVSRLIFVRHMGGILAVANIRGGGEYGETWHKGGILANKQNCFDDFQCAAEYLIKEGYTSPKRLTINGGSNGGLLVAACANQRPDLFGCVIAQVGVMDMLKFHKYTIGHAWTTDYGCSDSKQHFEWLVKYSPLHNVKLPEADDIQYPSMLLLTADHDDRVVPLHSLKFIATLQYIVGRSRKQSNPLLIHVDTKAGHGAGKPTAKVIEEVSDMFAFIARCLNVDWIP

Sequence of Recombinant human DPP4 (R&D systems, #9168-SE) (P27487 29-766 limits assumed): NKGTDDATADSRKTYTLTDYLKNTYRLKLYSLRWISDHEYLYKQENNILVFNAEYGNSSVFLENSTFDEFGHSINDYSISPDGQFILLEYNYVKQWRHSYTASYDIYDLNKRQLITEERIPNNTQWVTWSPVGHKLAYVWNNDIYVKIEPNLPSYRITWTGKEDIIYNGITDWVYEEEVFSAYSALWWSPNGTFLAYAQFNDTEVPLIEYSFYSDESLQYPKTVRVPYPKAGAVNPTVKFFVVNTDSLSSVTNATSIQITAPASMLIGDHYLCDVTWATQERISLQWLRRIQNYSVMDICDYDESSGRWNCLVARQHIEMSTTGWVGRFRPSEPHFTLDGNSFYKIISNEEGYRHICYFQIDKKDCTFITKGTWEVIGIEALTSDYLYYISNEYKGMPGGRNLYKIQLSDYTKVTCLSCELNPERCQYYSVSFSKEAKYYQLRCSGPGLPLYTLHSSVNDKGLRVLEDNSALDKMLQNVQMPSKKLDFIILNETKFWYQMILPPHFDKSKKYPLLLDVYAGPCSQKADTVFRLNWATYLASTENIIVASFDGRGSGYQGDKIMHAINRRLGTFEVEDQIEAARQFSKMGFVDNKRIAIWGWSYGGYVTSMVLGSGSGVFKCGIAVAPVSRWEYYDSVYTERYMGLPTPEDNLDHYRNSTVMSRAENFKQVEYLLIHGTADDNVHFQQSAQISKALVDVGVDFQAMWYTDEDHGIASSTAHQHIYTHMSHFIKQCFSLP

pKD [1]: > 8 pkd
B1: nBu-CAyl-[Cys(tMeBn(DOTA-AET))-Nmg-Pro-Thr-Gln-Phe-Cys]-OH (peptide)
peptide: {nBu‑CAyl}-C[Sar]PTQFC-OH
modifications: linker 1-7 via TBMB(SCH2CH2NH-DOTA)
SMILES: CCCCNC(=O)N[C@H]1CSCc2cc(CSCCNC(=O)CN3CCN(CC(=O)O)CCN(CC(=O)O)CCN(CC(=O)O)CC3)cc(c2)CSC[C@@H](C(=O)O)NC(=O)[C@H](Cc2ccccc2)NC(=O)[C@H](CCC(N)=O)NC(=O)[C@H]([C@@H](C)O)NC(=O)[C@@H]2CCCN2C(=O)CN(C)C1=O
notes: also called 3BP-4607

pIC50 [2]: > 8 pic50
B2: N4Ac-PPAc-Ttds-Nle-[C(3MeBn)-PPTEFC]D-OH (peptide)
peptide: {N4Ac-PPAc-Ttds(4)}-[Nle]CPPTEFCD-OH
modifications: linker 2-8 via 3MeBn
notes: also called 3BP-4785

pIC50 [2]: > 8 pic50
B3: nBu-CAyl-[C(tMeBn(NODAGA-AET))-PPTEFC]-OH (peptide)
peptide: CPPTEFC
modifications: N-term nBu-CAyl-; Cys1 and Cys7 thioether-bridged by tMeBn(NODAGA-AET); C-term -OH
notes: also called 3BP-4724

pIC50 [3]: 6.1 to 7 pic50 | pIC50 Category (Activity) [4]: ≤ 6 pIC50
B4: N4Ac-Ttds-Glu-[Cys-(3MeBn)-Pro-Pro-Thr-Glu-Phe-Cys]-OH (peptide)
peptide: N4Ac-[Ttds(6)]ECPPTEFC-OH
modifications: linker 3-9 via 3MeBn
notes: also called 3BP-4233

pIC50 Category (FACS) [5]: ≤ 6 pIC50 | pIC50 Category (Activity) [6]: 6.1 pIC50 and 7 pIC50
B5: Hex-[Cys(3MeBn)-Pro-4Dfp-Thr-Glu-Phe-Cys]-NH2 (peptide)
peptide: Hexanoyl-CP[Pro(4,4-F2)]TEFC-NH2
modifications: linker 1-7 via mXylylene
SMILES: CCCCCC(=O)N[C@H]1CSCc2cccc(c2)CSC[C@@H](C(N)=O)NC(=O)[C@H](Cc2ccccc2)NC(=O)[C@H](CCC(=O)O)NC(=O)[C@H]([C@@H](C)O)NC(=O)[C@@H]2CC(F)(F)CN2C(=O)[C@@H]2CCCN2C1=O
notes: also called 3BP-3365

pIC50 [3]: 6.1 to 7 pic50
B6: DTPA-Ttds-Nle-[Cys-(3MeBn)-Pro-Pro-Thr-Glu-Phe-Cys]-OH (peptide)
peptide: {DTPA}-[Ttds][Nle]CPPTEFC-OH
modifications: linker 3-9 via mXylylene
SMILES: CCCC[C@H](NC(=O)CCC(=O)NCCCOCCOCCOCCCNC(=O)CN(CCN(CCN(CC(=O)O)CC(=O)O)CC(=O)O)CC(=O)O)C(=O)N[C@H]1CSCc2cccc(c2)CSC[C@@H](C(=O)O)NC(=O)[C@H](Cc2ccccc2)NC(=O)[C@H](CCC(=O)O)NC(=O)[C@H]([C@@H](C)O)NC(=O)[C@@H]2CCCN2C(=O)[C@@H]2CCCN2C1=O
notes: also called 3BP-4229

pIC50 [3]: 6.1 to 7 pic50
B7: Hex-[Cys(tMeBn(DOTA-PP))-Pro-Gln-Phe-Pro-Thr-Cys]-Asp-NH2 (peptide)
peptide: Hexanoyl-CPQFPTCD-NH2
modifications: linker 1-7 via tMeBn(DOTA-PP)
SMILES: CCCCCC(=O)N[C@H]1CSCc2cc(cc(CN3CCN(C(=O)CN4CCN(CC(=O)O)CCN(CC(=O)O)CCN(CC(=O)O)CC4)CC3)c2)CSC[C@@H](C(=O)N[C@@H](CC(=O)O)C(N)=O)NC(=O)[C@H]([C@@H](C)O)NC(=O)[C@@H]2CCCN2C(=O)[C@H](Cc2ccccc2)NC(=O)[C@H](CCC(N)=O)NC(=O)[C@@H]2CCCN2C1=O
notes: also called 3BP-3857

pKD [7]: 7.1 to 8 pkd | pIC50 (DPP4) [8]: < 6 pIC50 | pIC50 (PREP) [9]: 6.2 pIC50
B8: DOTA-Ttds-Nle-[Cys(3MeBn)-Pro-Pro-Thr-Glu-Phe-Cys]-NH2 (peptide)
peptide: {DOTA}-[Ttds][Nle]CPPTEFC-NH2
modifications: linker 3-9 via mXylylene
SMILES: CCCC[C@H](NC(=O)CCC(=O)NCCCOCCOCCOCCCNC(=O)CN1CCN(CC(=O)O)CCN(CC(=O)O)CCN(CC(=O)O)CC1)C(=O)N[C@H]1CSCc2cccc(c2)CSC[C@@H](C(N)=O)NC(=O)[C@H](Cc2ccccc2)NC(=O)[C@H](CCC(=O)O)NC(=O)[C@H]([C@@H](C)O)NC(=O)[C@@H]2CCCN2C(=O)[C@@H]2CCCN2C1=O
notes: also called 3BP-3319

pIC50 [3]: 6.1 to 7 pic50
B9: Hex-[Cys(tMeBn(DOTA-PP))-Pro-Pro-Ala-Gln-Phe-Cys]-Asp-NH2 (peptide)
peptide: Hexanoyl-CPPAQFCD-NH2
modifications: linker 1-7 via tMeBn(DOTA-PP)
SMILES: CCCCCC(=O)N[C@H]1CSCc2cc(cc(CN3CCN(C(=O)CN4CCN(CC(=O)O)CCN(CC(=O)O)CCN(CC(=O)O)CC4)CC3)c2)CSC[C@@H](C(=O)N[C@@H](CC(=O)O)C(N)=O)NC(=O)[C@H](Cc2ccccc2)NC(=O)[C@H](CCC(N)=O)NC(=O)[C@H](C)NC(=O)[C@@H]2CCCN2C(=O)[C@@H]2CCCN2C1=O
notes: also called 3BP-3745
